{"source": "paper PMC7657459", "about": "“A second hybrid-binding domain modulates the activity of Drosophila ribonuclease H1”", "key": {"RNase H1 ΔII-V [1]": {"molecular_target": "T1, RNase H1 ΔII-V (Drosophila melanogaster, UniProt A1Z769 17-65)", "T1 chain": "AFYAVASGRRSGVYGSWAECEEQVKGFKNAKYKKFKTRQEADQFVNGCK", "assay": "BLI; BLI: 30 mM Tris-HCl pH 8.0, 100 mM KCl, 10% glycerol, 10 mM EDTA, 2 mM DTT, 400 ug/ml BSA, 30 C; EMSA: 25 mM Tris-HCl pH 8.0, 25 mM KCl, 1 mM DTT, 10 mM EDTA, 20 ug/ml BSA, room temperature, 30 min", "settings": "protein: recombinant, tags: C-terminal 6xHis, blunt"}, "RNase H1 ΔIII-V [2]": {"molecular_target": "T2, RNase H1 ΔIII-V (Drosophila melanogaster, UniProt A1Z769 17-87)", "T2 sequence": "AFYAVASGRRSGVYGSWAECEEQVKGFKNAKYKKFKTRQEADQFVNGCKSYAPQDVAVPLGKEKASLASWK", "assay": "BLI; BLI: 30 mM Tris-HCl pH 8.0, 100 mM KCl, 10% glycerol, 10 mM EDTA, 2 mM DTT, 400 ug/ml BSA, 30 C; EMSA: 25 mM Tris-HCl pH 8.0, 25 mM KCl, 1 mM DTT, 10 mM EDTA, 20 ug/ml BSA, room temperature, 30 min", "settings": "protein: recombinant, tags: C-terminal 6xHis, blunt"}, "RNase H1 ΔIV/V [3]": {"molecular_target": "T3, RNase H1 ΔIV/V (Drosophila melanogaster, UniProt A1Z769 17-142)", "T3 sequence": "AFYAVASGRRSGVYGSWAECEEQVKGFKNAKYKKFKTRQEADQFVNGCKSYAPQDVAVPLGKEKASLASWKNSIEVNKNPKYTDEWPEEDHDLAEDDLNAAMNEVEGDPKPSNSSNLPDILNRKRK", "assay": "BLI; BLI: 30 mM Tris-HCl pH 8.0, 100 mM KCl, 10% glycerol, 10 mM EDTA, 2 mM DTT, 400 ug/ml BSA, 30 C; EMSA: 25 mM Tris-HCl pH 8.0, 25 mM KCl, 1 mM DTT, 10 mM EDTA, 20 ug/ml BSA, room temperature, 30 min", "settings": "protein: recombinant, tags: C-terminal 6xHis, blunt"}, "RNase H1 D252N [4]": {"molecular_target": "T4, RNase H1 D252N (Drosophila melanogaster, UniProt A1Z769 17-333, D252N)", "T4 sequence": "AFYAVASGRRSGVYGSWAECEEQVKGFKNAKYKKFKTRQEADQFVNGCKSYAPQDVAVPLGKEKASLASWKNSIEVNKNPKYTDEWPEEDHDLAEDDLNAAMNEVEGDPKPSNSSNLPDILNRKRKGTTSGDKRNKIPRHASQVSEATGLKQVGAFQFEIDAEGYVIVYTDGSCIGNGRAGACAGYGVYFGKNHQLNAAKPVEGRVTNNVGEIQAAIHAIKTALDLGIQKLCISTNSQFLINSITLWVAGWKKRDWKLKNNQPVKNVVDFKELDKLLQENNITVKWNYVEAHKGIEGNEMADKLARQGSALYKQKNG", "assay": "EMSA; BLI: 30 mM Tris-HCl pH 8.0, 100 mM KCl, 10% glycerol, 10 mM EDTA, 2 mM DTT, 400 ug/ml BSA, 30 C; EMSA: 25 mM Tris-HCl pH 8.0, 25 mM KCl, 1 mM DTT, 10 mM EDTA, 20 ug/ml BSA, room temperature, 30 min", "settings": "protein: recombinant, tags: C-terminal 6xHis (+2 vector residues), blunt"}, "RNase H1 ΔII/III D252N": {"molecular_target": "T5, RNase H1 ΔII/III D252N (Drosophila melanogaster, UniProt A1Z769 17-333, D252N;del66-141)", "T5 sequence": "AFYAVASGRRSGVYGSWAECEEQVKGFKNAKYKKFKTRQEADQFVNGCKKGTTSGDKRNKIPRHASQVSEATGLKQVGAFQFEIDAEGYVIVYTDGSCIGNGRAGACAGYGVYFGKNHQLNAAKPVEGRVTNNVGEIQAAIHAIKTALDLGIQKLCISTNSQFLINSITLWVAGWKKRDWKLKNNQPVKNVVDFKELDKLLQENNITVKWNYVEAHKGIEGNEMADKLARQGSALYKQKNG", "assay": "EMSA; BLI: 30 mM Tris-HCl pH 8.0, 100 mM KCl, 10% glycerol, 10 mM EDTA, 2 mM DTT, 400 ug/ml BSA, 30 C; EMSA: 25 mM Tris-HCl pH 8.0, 25 mM KCl, 1 mM DTT, 10 mM EDTA, 20 ug/ml BSA, room temperature, 30 min", "settings": "protein: recombinant, tags: C-terminal 6xHis, blunt"}, "[5]": {"molecular_target": "Dm RNase H1 (amino acids 17-333), bacterially expressed (Drosophila melanogaster)"}, "RNase H1 ΔI/II D252N": {"molecular_target": "T6, RNase H1 ΔI/II D252N (Drosophila melanogaster, UniProt A1Z769 87-333, D252N)", "T6 sequence": "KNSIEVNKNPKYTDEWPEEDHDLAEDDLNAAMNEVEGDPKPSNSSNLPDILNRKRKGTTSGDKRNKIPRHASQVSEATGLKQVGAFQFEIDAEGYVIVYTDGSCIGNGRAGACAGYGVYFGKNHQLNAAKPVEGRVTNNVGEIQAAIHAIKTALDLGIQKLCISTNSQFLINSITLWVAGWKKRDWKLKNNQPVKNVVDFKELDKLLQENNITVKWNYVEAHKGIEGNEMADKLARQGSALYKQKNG", "assay": "EMSA; no supershift; BLI: 30 mM Tris-HCl pH 8.0, 100 mM KCl, 10% glycerol, 10 mM EDTA, 2 mM DTT, 400 ug/ml BSA, 30 C; EMSA: 25 mM Tris-HCl pH 8.0, 25 mM KCl, 1 mM DTT, 10 mM EDTA, 20 ug/ml BSA, room temperature, 30 min", "settings": "protein: recombinant; tags: C-terminal 6xHis; blunt"}, "RNase H1 ΔI-III D252N": {"molecular_target": "T7, RNase H1 ΔI-III D252N (Drosophila melanogaster, UniProt A1Z769 142-333, D252N)", "T7 sequence": "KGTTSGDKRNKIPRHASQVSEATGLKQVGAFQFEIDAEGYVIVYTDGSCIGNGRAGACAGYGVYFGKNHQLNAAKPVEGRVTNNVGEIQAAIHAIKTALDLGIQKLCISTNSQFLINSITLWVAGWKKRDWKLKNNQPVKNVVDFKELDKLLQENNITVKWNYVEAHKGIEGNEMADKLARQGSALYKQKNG", "assay": "EMSA; no supershift; BLI: 30 mM Tris-HCl pH 8.0, 100 mM KCl, 10% glycerol, 10 mM EDTA, 2 mM DTT, 400 ug/ml BSA, 30 C; EMSA: 25 mM Tris-HCl pH 8.0, 25 mM KCl, 1 mM DTT, 10 mM EDTA, 20 ug/ml BSA, room temperature, 30 min", "settings": "protein: recombinant; tags: C-terminal 6xHis; blunt"}, "RNase H1 ΔII-V [6]": {"molecular_target": "T1, RNase H1 ΔII-V", "assay": "EMSA; supershift at high protein; BLI: 30 mM Tris-HCl pH 8.0, 100 mM KCl, 10% glycerol, 10 mM EDTA, 2 mM DTT, 400 ug/ml BSA, 30 C; EMSA: 25 mM Tris-HCl pH 8.0, 25 mM KCl, 1 mM DTT, 10 mM EDTA, 20 ug/ml BSA, room temperature, 30 min", "settings": "protein: recombinant; tags: C-terminal 6xHis; blunt"}, "RNase H1 ΔIII-V [7]": {"molecular_target": "T2, RNase H1 ΔIII-V", "assay": "EMSA; supershift at high protein; BLI: 30 mM Tris-HCl pH 8.0, 100 mM KCl, 10% glycerol, 10 mM EDTA, 2 mM DTT, 400 ug/ml BSA, 30 C; EMSA: 25 mM Tris-HCl pH 8.0, 25 mM KCl, 1 mM DTT, 10 mM EDTA, 20 ug/ml BSA, room temperature, 30 min", "settings": "protein: recombinant; tags: C-terminal 6xHis; blunt"}, "RNase H1 ΔIV/V [8]": {"molecular_target": "T3, RNase H1 ΔIV/V", "assay": "EMSA; supershift at high protein; BLI: 30 mM Tris-HCl pH 8.0, 100 mM KCl, 10% glycerol, 10 mM EDTA, 2 mM DTT, 400 ug/ml BSA, 30 C; EMSA: 25 mM Tris-HCl pH 8.0, 25 mM KCl, 1 mM DTT, 10 mM EDTA, 20 ug/ml BSA, room temperature, 30 min", "settings": "protein: recombinant; tags: C-terminal 6xHis; blunt"}, "RNase H1 D252N [9]": {"molecular_target": "T4, RNase H1 D252N", "assay": "EMSA; second shift at high protein; BLI: 30 mM Tris-HCl pH 8.0, 100 mM KCl, 10% glycerol, 10 mM EDTA, 2 mM DTT, 400 ug/ml BSA, 30 C; EMSA: 25 mM Tris-HCl pH 8.0, 25 mM KCl, 1 mM DTT, 10 mM EDTA, 20 ug/ml BSA, room temperature, 30 min", "settings": "protein: recombinant; tags: C-terminal 6xHis (+2 vector residues); blunt"}, "RNase H1 D252N [10]": {"molecular_target": "T4, RNase H1 D252N", "assay": "EMSA; 1 or 10 uM protein; BLI: 30 mM Tris-HCl pH 8.0, 100 mM KCl, 10% glycerol, 10 mM EDTA, 2 mM DTT, 400 ug/ml BSA, 30 C; EMSA: 25 mM Tris-HCl pH 8.0, 25 mM KCl, 1 mM DTT, 10 mM EDTA, 20 ug/ml BSA, room temperature, 30 min", "settings": "protein: recombinant; tags: C-terminal 6xHis (+2 vector residues); label: 5' 32P; single strand"}}}
{"binder": "30-bp dsDNA (dsDNA) DNA 1: AAGTAGGGCACGCTATAGTTAGTCTTCGCG DNA 2: CGCGAAGACTAACTATAGCGTGCCCTACTT", "values": [{"measurement": "binding result", "setting": "RNase H1 ΔII-V [1]; label: 5' biotin on S3 for BLI", "value": "no binding"}, {"measurement": "binding result", "setting": "RNase H1 ΔIII-V [2]; label: 5' biotin on S3 for BLI", "value": "no binding"}, {"measurement": "binding result", "setting": "RNase H1 ΔIV/V [3]; label: 5' biotin on S3 for BLI", "value": "no binding"}, {"measurement": "binding result", "setting": "RNase H1 D252N [4]; label: 5' biotin on S3 for BLI", "value": "binds"}, {"measurement": "binding result", "setting": "RNase H1 ΔII/III D252N; label: 5' biotin on S3 for BLI", "value": "binds"}]}
{"binder": "Drosophila mitochondrial single-stranded DNA-binding protein, purified (natural protein) ATTTTAAAPAKVEKTVNTVTILGRVGADPQLRGSQEHPVVTFSVATHTNYKYENGDWAQRTDWHRVVVFKPNLRDTVLEYLKKGQRTMVQGKITYGEITDQQGNQKTSTSIIADDVLFFRDANN", "values": [{"measurement": "nuclease activity of 0.1 nM Dm RNase H1 on radiolabelled 30-bp RNA/DNA hybrid pre-incubated with mtSSB (0-500 nM), without ssDNA; densitometry", "setting": "[5]", "value": 55, "unit": "%"}]}
{"binder": "30-bp dsRNA (dsRNA) RNA 1: AAGUAGGGCACGCUAUAGUUAGUCUUCGCG RNA 2: CGCGAAGACUAACUAUAGCGUGCCCUACUU", "values": [{"measurement": "binding result", "setting": "RNase H1 ΔII-V [1]; label: 5' biotin on S2 for BLI", "value": "no binding"}, {"measurement": "binding result", "setting": "RNase H1 ΔIII-V [2]; label: 5' biotin on S2 for BLI", "value": "no binding"}, {"measurement": "binding result", "setting": "RNase H1 ΔIV/V [3]; label: 5' biotin on S2 for BLI", "value": "no binding"}, {"measurement": "binding result", "setting": "RNase H1 D252N [4]; label: 5' biotin on S2 for BLI", "value": "binds"}, {"measurement": "binding result", "setting": "RNase H1 ΔII/III D252N; label: 5' biotin on S2 for BLI", "value": "binds"}]}
{"binder": "30-bp RNA/DNA hybrid (EMSA) (DNA:RNA) RNA: CGCGAAGACUAACUAUAGCGUGCCCUACUU DNA: AAGTAGGGCACGCTATAGTTAGTCTTCGCG", "values": [{"measurement": "binding result", "setting": "RNase H1 ΔI/II D252N", "value": "binds"}, {"measurement": "binding result", "setting": "RNase H1 ΔI-III D252N", "value": "binds"}, {"measurement": "binding result", "setting": "RNase H1 ΔII-V [6]", "value": "binds"}, {"measurement": "binding result", "setting": "RNase H1 ΔIII-V [7]", "value": "binds"}, {"measurement": "binding result", "setting": "RNase H1 ΔIV/V [8]", "value": "binds"}, {"measurement": "binding result", "setting": "RNase H1 D252N [9]", "value": "binds"}, {"measurement": "binding result", "setting": "RNase H1 ΔII/III D252N", "value": "binds"}]}
{"binder": "CGCGAAGACUAACUAUAGCGUGCCCUACUU (ssRNA)", "note": "[30-nt ssRNA]", "values": [{"measurement": "binding result", "setting": "RNase H1 D252N [10]", "value": "no binding"}]}
{"binder": "AAGTAGGGCACGCTATAGTTAGTCTTCGCG (ssDNA)", "note": "[30-nt ssDNA]", "values": [{"measurement": "binding result", "setting": "RNase H1 D252N [10]", "value": "no binding"}]}
